The test system of this data set is Saccharomyces cerevisiae. Briefly: protein stability index of tFT-peptide fusion (C-terminal peptide) (PSI (0-1 scale)); higher = more stable (slower turnover). Particulars: temperature: 30 C. The method, then:
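MPS profiling in S. cerevisiae of the yeast C-terminome library: the last 12 aa of each annotated ORF are fused to the C-terminus of a sfGFP-mCherry timer, after a GGGS linker. Cells are FACS-sorted into 8 mCherry/sfGFP bins and deep-sequenced. PSI runs from 0 (unstable) to 1 (stable); wild type and das1Δ backgrounds, two technical replicates each.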

[1] abbreviates: genetic background: das1 deletion.

± gives the standard deviation of the averaged measurements.

As for VTAGKAKFVLYN [SUN4 C-terminal 12 aa], the protein stability index is 0.665 ± 0.0087 under setting [1] and 0.445 ± 0.012 (genetic background: wild type).

VTVLRNSQYFFS [RPO41 C-terminal 12 aa]: the protein stability index came out at 0.741 ± 0.039 under setting [1] and 0.728 ± 0.018 (genetic background: wild type).

In the case of VVQFLVNLVCHT [YGR114C C-terminal 12 aa], the protein stability index runs as follows: under setting [1], 0.4879 ± 0.0042; (genetic background: wild type) 0.487 ± 0.011.

Regarding VWCSVKKRLLEK [TIM23 C-terminal 12 aa], the protein stability index is 0.724 ± 0.016 under setting [1] and 0.732 ± 0.037 (genetic background: wild type).

As to WAKRAFDGQFVK [DAP2 C-terminal 12 aa], the protein stability index is, setting by setting: under setting [1], 0.717 ± 0.0086; (genetic background: wild type) 0.735 ± 0.017.

On to WEAYLRRCGQQN [URA3 C-terminal 12 aa], for which the protein stability index runs as follows: under setting [1], 0.697 ± 0.032; (genetic background: wild type) 0.658 ± 0.018.

For the sequence WGIYEELVKRFM [HEM25 C-terminal 12 aa], the protein stability index reads like this: under setting [1], 0.7094 ± 0.0066; (genetic background: wild type) 0.707 ± 0.013.

With WKEDADKNAGHK [OCH1 C-terminal 12 aa], the protein stability index turned out to be 0.706 ± 0.012 under setting [1] and 0.731 ± 0.0062 (genetic background: wild type).

WKLRAKYGIRKD [MGR2 C-terminal 12 aa]: the protein stability index is 0.6905 ± 0.0028 under setting [1] and 0.684 ± 0.02 (genetic background: wild type).

Turning to WKLYQDYLSGKV [YER134C C-terminal 12 aa], the protein stability index reads like this: under setting [1], 0.695 ± 0.014; (genetic background: wild type) 0.719 ± 0.08.

For the sequence WLDKHTTTEAKP [YJU3 C-terminal 12 aa], the protein stability index is, setting by setting: under setting [1], 0.7087 ± 0.0036; (genetic background: wild type) 0.705 ± 0.0089.

Consider WQDFVPDEHISQ [VPS501 C-terminal 12 aa], for which the protein stability index is, setting by setting: under setting [1], 0.736 ± 0.0053; (genetic background: wild type) 0.792 ± 0.028.

For WSTFYYLCRKRE [CRG1 C-terminal 12 aa], the protein stability index by setting is: under setting [1], 0.693 ± 0.014; (genetic background: wild type) 0.701 ± 0.077.

In the case of WYLQSVNLRDGV [HOL1 C-terminal 12 aa], the protein stability index runs as follows: under setting [1], 0.6852 ± 0.005; (genetic background: wild type) 0.688 ± 0.035.

WYSRKNINSRFE [MTR10 C-terminal 12 aa]: the protein stability index reads like this: under setting [1], 0.714 ± 0.059; (genetic background: wild type) 0.712 ± 0.046.

For the sequence YAKFGDNINLER [GIM3 C-terminal 12 aa], the protein stability index is, setting by setting: under setting [1], 0.70175 ± 0.00021; (genetic background: wild type) 0.698 ± 0.031.

In the case of YAWTRGLTNPIC [FEX1 C-terminal 12 aa], the protein stability index reads like this: under setting [1], 0.69727 ± 0.00064; (genetic background: wild type) 0.69 ± 0.0087.

In turn, YELDGPYMSKRI [ELP3 C-terminal 12 aa] returned a protein stability index under setting [1] of 0.6788 ± 0.0018 and a protein stability index (genetic background: wild type) of 0.704 ± 0.062.

On to “YGANSQQTFEHT [YFR034W-A C-terminal 12 aa]”, for which the protein stability index was 0.706 ± 0.011 under setting [1] and 0.728 ± 0.026 (genetic background: wild type).

Consider YIARNQKKGMSI [ECT1 C-terminal 12 aa], for which the protein stability index stood at 0.685 ± 0.011 under setting [1] and 0.67 ± 0.015 (genetic background: wild type).

YIKEAQSACNDV [COS12 C-terminal 12 aa]: the protein stability index reads like this: under setting [1], 0.692 ± 0.018; (genetic background: wild type) 0.664 ± 0.03.

For YKNLRKTSSSHL [NPY1 C-terminal 12 aa], the protein stability index was determined as 0.843 ± 0.028 under setting [1] and 0.84 ± 0.031 (genetic background: wild type).

As for YKTKYIWERLGK [SPC24 C-terminal 12 aa], the protein stability index amounted to 0.69 ± 0.012 under setting [1] and 0.694 ± 0.029 (genetic background: wild type).

Regarding YKTQTGNFQVRL [APM3 C-terminal 12 aa], the protein stability index under setting [1] was 0.706 ± 0.0095 and the protein stability index (genetic background: wild type) is 0.722 ± 0.0093.

Take YLERRVRTLKKD [MRPL32 C-terminal 12 aa]: the protein stability index was found to be 0.713 ± 0.032 under setting [1] and 0.68 ± 0.013 (genetic background: wild type).

On to YLVHNNADEKSN [CUZ1 C-terminal 12 aa], for which the protein stability index by setting is: under setting [1], 0.704 ± 0.034; (genetic background: wild type) 0.695 ± 0.05.

Consider YNDHRLPKRAKK [HSF1 C-terminal 12 aa], for which the protein stability index came to 0.6948 ± 0.0036 under setting [1] and 0.7354 ± 0.0051 (genetic background: wild type).

Consider YNKLESNLQIFM [ABZ1 C-terminal 12 aa], for which the protein stability index reads like this: under setting [1], 0.697 ± 0.017; (genetic background: wild type) 0.744 ± 0.0097.

“YPFTISYISPPY [YPR169W-A C-terminal 12 aa]”: the protein stability index came to 0.71 ± 0.067 under setting [1] and 0.702 ± 0.025 (genetic background: wild type).

As for YPQQLLGYTDNG [YKL115C C-terminal 12 aa], the protein stability index is, setting by setting: under setting [1], 0.628 ± 0.013; (genetic background: wild type) 0.597 ± 0.0073.

For the sequence “YSFNKLTMTILY [YER137W-A C-terminal 12 aa]”, the protein stability index was 0.6999 ± 0.0014 under setting [1] and 0.633 ± 0.026 (genetic background: wild type).

YSIEVVPHGLIA [GLO1 C-terminal 12 aa] displayed a protein stability index under setting [1] of 0.607 ± 0.0097 and a protein stability index (genetic background: wild type) of 0.5946 ± 0.0015.

Take YTSKSFSPASSE [YMR181C C-terminal 12 aa]: the protein stability index came to 0.704 ± 0.031 under setting [1] and 0.668 ± 0.022 (genetic background: wild type).

As for YVFIVNHAAEQT [NUP116 C-terminal 12 aa], the protein stability index came out at 0.677 ± 0.024 under setting [1] and 0.659 ± 0.009 (genetic background: wild type).

Regarding YVKQQHGQSQND [EAF6 C-terminal 12 aa], the protein stability index runs as follows: under setting [1], 0.695 ± 0.021; (genetic background: wild type) 0.694 ± 0.022.

Source of the values: the supplement of paper PMC10724198.
